# Measured values taken from patent publication US20150329642A1 (Genmab, published 2015).
# Legend:
# cMetECDHis [1] = target: T1, cMetECDHis (human, UniProt P08581 25-932, limits assumed, biotinylated in the cross-block ELISA of Example 17); experiment: cross-block ELISA; competitor 006
# T1 construct: Expressed in HEK-293F cells; also called soluble cMetECDHis; biotinylated cMetECDHis
# Procedure: (§1) First, the optimal coating concentrations of the tested anti-c-Met antibodies and the optimal cMetECDHis concentration were determined. Therefore, ELISA wells were coated overnight at 4° C. with anti-c-Met HuMabs serially diluted in PBS (8 μg/mL in 2-fold dilutions). Next, the ELISA wells were washed with PBST (PBS supplemented with 0.05% Tween-20 [Sigma-Aldrich, Zwijndrecht, The Netherlands]) and blocked for one hour at room temperature (RT) with PBSTC (PBST supplemented 2% [v/v] chicken serum [Gibco, Paisley, Scotland]). Subsequently, the ELISA wells were washed with PBST and incubated for one hour at RT with biotinylated cMetECDHis serially diluted in PBSTC (1 μg/mL in 2-fold dilutions). Unbound biotinylated cMetECDHis was washed away with PBST, and bound biotinylated cMetECDHis was incubated for one hour at RT with 0.1 μg/mL Streptavidin-poly-HRP (Sanquin, Amsterdam, The Netherlands) diluted in PBST.
# (§2) ELISA wells were coated with anti-c-Met antibody at a sub-optimal dose as described above. After blocking of the ELISA wells, they were incubated with the predetermined concentration of biotinylated cMetECDHis in the presence of an excess of anti-c-Met antibody. The reaction was developed as described above. Residual binding was expressed as a percentage relative to the binding observed in the absence of competitor antibody.
# cMetECDHis [2] = target: T1, cMetECDHis; experiment: cross-block ELISA; competitor 008
# Procedure: as §1, §2
# cMetECDHis [3] = target: T1, cMetECDHis; experiment: cross-block ELISA; competitor 022
# Procedure: as §1, §2
# cMetECDHis [4] = target: T1, cMetECDHis; experiment: cross-block ELISA; competitor 024
# Procedure: as §1, §2
# cMetECDHis [5] = target: T1, cMetECDHis; experiment: cross-block ELISA; competitor 035
# Procedure: as §1, §2
# cMetECDHis [6] = target: T1, cMetECDHis; experiment: cross-block ELISA; competitor 045
# Procedure: as §1, §2
# cMetECDHis [7] = target: T1, cMetECDHis; experiment: cross-block ELISA; competitor 058
# Procedure: as §1, §2
# cMetECDHis [8] = target: T1, cMetECDHis; experiment: cross-block ELISA; competitor 062
# Procedure: as §1, §2
# cMetECDHis [9] = target: T1, cMetECDHis; experiment: cross-block ELISA; competitor 064
# Procedure: as §1, §2
# cMetECDHis [10] = target: T1, cMetECDHis; experiment: cross-block ELISA; competitor 068
# Procedure: as §1, §2
# cMetECDHis [11] = target: T1, cMetECDHis; experiment: cross-block ELISA; competitor 069
# Procedure: as §1, §2
# cMetECDHis [12] = target: T1, cMetECDHis; experiment: cross-block ELISA; competitor 098
# Procedure: as §1, §2
# cMetECDHis [13] = target: T1, cMetECDHis; experiment: cross-block ELISA; competitor 101
# Procedure: as §1, §2
# cMetECDHis [14] = target: T1, cMetECDHis; experiment: cross-block ELISA; competitor 181
# Procedure: as §1, §2
# cMetECDHis [15] = target: T1, cMetECDHis; experiment: cross-block ELISA; competitor 5D5
# Procedure: as §1, §2
# cMetECDHis [16] = target: T1, cMetECDHis; experiment: cross-block ELISA; competitor G11-HZ
# Procedure: as §1, §2
# cMetECDHis [17] = target: T1, cMetECDHis; experiment: BLI (Octet); antibody captured, cMetECDHis in solution
# Summary of the method: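 Bio-layer interferometry: anti-c-Met IgG immobilized via anti-human Fc sensors, exposed roughly 10 min to 10 μg/mL HEK293-made cMetECDHis, then moved to kinetics buffer for off-rate. Affinity derived with a 1:1 Langmuir model.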
Binder,"residual binding, % of no competitor (cMetECDHis [1])","residual binding, % of no competitor (cMetECDHis [2])","residual binding, % of no competitor (cMetECDHis [3])","residual binding, % of no competitor (cMetECDHis [4])","residual binding, % of no competitor (cMetECDHis [5])","residual binding, % of no competitor (cMetECDHis [6])","residual binding, % of no competitor (cMetECDHis [7])","residual binding, % of no competitor (cMetECDHis [8])","residual binding, % of no competitor (cMetECDHis [9])","residual binding, % of no competitor (cMetECDHis [10])","residual binding, % of no competitor (cMetECDHis [11])","residual binding, % of no competitor (cMetECDHis [12])","residual binding, % of no competitor (cMetECDHis [13])","residual binding, % of no competitor (cMetECDHis [14])","residual binding, % of no competitor (cMetECDHis [15])","residual binding, % of no competitor (cMetECDHis [16])",Kd (cMetECDHis [17]),koff (cMetECDHis [17]),kon (cMetECDHis [17])
"IgG1-1016-058 (antibody, V domains shown, also called IgG1-058; TH1016-058) VH: EVQLVESGGGLVKPGGSLKLSCAASGFTFSDYYMYWVRQTPEKRLEWVATISDDGSYTYYPDSVKGRFTISRDNAKNNLYLQMSSLKSEDTAMYYCAREGLYYYGSGSYYNQDYWGQGTLVTVSS VL: AIQLTQSPSSLSASVGDRVTITCRASQGLSSALAWYRQKPGKAPKLLIYDASSLESGVPSRFSGSGSGTDFTLTISSLQPEDFATYYCQQFTSYPQITFGQGTRLEIK",43.6%,90.2%,6.8%,109%,90.1%,112%,4%,109%,109%,119%,113%,112%,104%,121%,2.8%,81.5%,2.7 nM,0.00125 s⁻¹,464000 M⁻¹ s⁻¹
"anti-c-Met HuMab 098 (IgG1) (antibody, V domains shown, also called TH1016-098; PC1016-098) VH: QVQLVQSGAEVKKPGASVKVSCKASGYTFTNFGISWVRQAPGQGLEWMGWISAFNGHTDYSQKVQGRVTMTTDTSTSTAYMELRSLRSDDTAVFYCARSHYYGSGSPFDYWGQGTLVTVSS VL: DIQMTQSPSSLSASVGDRVTITCRASQGISNWLAWYQQKPEKAPKSLIYAASSLQSGVPSRFSGSGSGTDFTLTISSLQPEDFATYYCHQYKSYPWTFGQGTKVEIK",97.9%,99.8%,95.8%,12.9%,89.4%,96.7%,98.6%,8.8%,9.3%,18%,3.4%,2.6%,4%,12%,94.9%,99.6%,1.82 nM,0.000297 s⁻¹,164000 M⁻¹ s⁻¹
"anti-c-Met HuMab 181 (IgG1) (antibody, V domains shown, also called TH1016-181; PC1016-181) VH: QVQLVQSGAEVKKPGASVKVSCKASGYTFTSYGISWVRQAPGQGLEWMGWISTYNGYTNYAQKLQGRVTMTTDTSTSTAYMELRSLRSDDTAVYYCARDLRGTAYFDYWGQGTLVTVSS VL: DIQMTQSPSSVSASVGDRVTITCRASQGISNWLAWYQHKPGKAPKLLIYAASSLLSGVPSRFSGSGSGTDFTLTISSLQPEDFATYYCQQANSFPITFGQGTRLEIK",93.7%,98.7%,92.5%,4.3%,96%,96.8%,98.9%,2%,2.1%,6.5%,2.2%,5.1%,2.4%,3.6%,94.2%,98.7%,2.23 nM,0.000531 s⁻¹,237000 M⁻¹ s⁻¹
"anti-c-Met HuMab 101 (IgG1) (antibody, V domains shown) VH: QVQLVQSGGEVKKPGASVKVSCKASGYTFTRHGITWVRQAPGQGLEWMGWISADNGNTNYAQKFQDRVTMTTDTSTSTAYMELRSLRSDDTAVYFCARVFRYFDWLLPYFDYWGQGTLVTVST VL: not shown",89.7%,94%,90.7%,40.5%,96.7%,94.7%,93.1%,36.9%,37.4%,45.9%,9.5%,9.7%,3.7%,41.9%,97.2%,98.3%,1.27 nM,0.000214 s⁻¹,169000 M⁻¹ s⁻¹
